Data set [1] deals with tryptic and chymotryptic proteases. The data set is described as follows: In vitro inhibitor treatment: rituximab heavy chain degradation in M44 supernatant. The note with it: 100 μM chymostatin or 1 mg/ml SBTI; M44 supernatant 6 mg/ml, pH 5.5. It counts as biochemical, Trichoderma reesei. Here is the method: Based on the knowledge that the heavy chain is cleaved by tryptic and chymotryptic proteases, inhibitors of these two enzyme classes were tested against antibody degradation both in vitro and in culture experiments utilizing an antibody producing T. reesei strain. The inhibitors soybean trypsin inhibitor (SBTI) and chymostatin were tested, as they have been previously shown in in vitro experiments to stabilize antibody heavy chains.
Chymostatin and SBTI were analyzed in vitro with culture supernatant. Supernatant from a fed batch fermentor culture was diluted to 6 mg/ml with sodium citrate buffer pH 5.5 (pH 5.5; 28° C.; 20 g/L spent grain extract, 60 g/L lactose). […] The strain was grown in Trichoderma minimal medium supplemented with 20 g/l spent grain extract and 60 g/l lactose at pH 5.5 and 28° C.
To this diluted supernatant 0.05 μg μl of rituximab, 100 μM chymostatin, 1 mg/ml SBTI, or a combination of both inhibitors was added in a total volume of 50 μl and sampled at 0, 1, and 19 hours to assess the early and late degradation of the rituximab antibody heavy chain. The resulting heavy chain products were analyzed by immunoblot using and anti-heavy chain AP conjugated antibody (Sigma #A3188) diluted 1:30,000 in TBST (FIG. 35). […] Additional fragments were generated after 19 hours, the two major products remained.

Data set [2] has as its system rituximab antibody producing strain. The data set is described as follows: Treatment of T. reesei rituximab cultures with inhibitors. It is filed as cell-based, Trichoderma reesei. On the procedure:
The effectiveness of the inhibitors was also tested with the rituximab antibody producing strain, which contains a VALEKR linker sequence and the pep1 deletion. This strain was grown in triplicate, in small flasks both in presence or absence of chymostatin, SBTI, or pepstatin A. The small shake flasks contained 50 ml of TrMM plus lactose (40 g/l), spent grain extract (20 g/l), and buffer with 100 mM PIPPS at pH 5.5. The SBTI inhibitor was added to the culture at final concentrations of either 100 μg/ml or 500 μg/ml. Chymostatin was used at 100 μM, and pepstatin A was used at 10 μM. Each of the three inhibitors was added to the cultures daily on day 2, 3, 4, and 5.
Growth of the cultures was followed daily by pH from day 2 until day 7. […] In the PIPPS buffered cultures, the pH decreased from an initial pH of 5.5 down to a pH of 4.8 after day 6. With chymostatin and pepstatin A the cultures were monitored up to day 7. On day 7 the average pH for the control bottles was 4.6, while the average pH for chymostatin treated cultures was 4.9, and the average pH of pepstatin A treated cultures was 5.0.
Culture supernatant samples (30 μl) were also collected on days 3, 4, and 5 for analysis of antibody production. The analysis was performed by immunoblots using an anti-IgG heavy chain antibody AP conjugate (Sigma #A3188) and an anti-light chain antibody AP conjugate (Sigma #A3812). Each antibody was diluted 1:30,000 in TBST. The full length rituximab heavy chain is about 51 kD, the rituximab light chain CHBI fusion is about 100 kD, and the free rituximab light chain is about 28 kD.

Data set [3] relates to SIP purified proteases (PEP2, PEP3, PEP4, PEP5, GAP1, SLP2). Description: Protease activity of SIP purified fractions against casein with inhibitors (EnzChek). It is filed as biochemical, Trichoderma reesei. The note with it: pH 5.5. On the procedure:
Protease activity was then tested against casein both in the presence and absence of protease inhibitors. Protease activity against casein was tested using the EnzChek protease assay kit (Molecular probes #E6638, green fluorescent casein substrate). The working stock solution was prepared by diluting the stock to 10 μg ml in 50 mM sodium citrate, pH 5.5. The purified protease fractions (10 μl) were diluted with […] of sodium citrate, pH 5.5. 100 μl of the diluted substrate was combined with the diluted protease fractions in a 96 well sample plate. The plate was then covered and kept at 37° C. for one to three hours. Fluorescence readings were taken at one, two, and three hours with a Varioskan fluorescent plate reader (Thermo Scientific) using 485 nm excitation and 530 nm emission.
The SIP inhibitor peptide, pepstatin A, LIP peptide, SBTI, and chymostatin were used as inhibitors. […] SIP, LIP, and pepstatin A were used at a concentration of 60 μM, and SBTI was used at a concentration of 200 μg/ml.

For data set [4], the system named is M369 human growth hormone strain. Description: hGH production in 24 well cultures with inhibitors and supplements. It is filed as cell-based, Trichoderma reesei. The note with it: 24 well culture, pH 4.5, day 4 immunoblot. Here is the method: To evaluate what inhibitors would best stabilize production of hGH, 24 well cultures of these strains were performed. The M369 human growth hormone strain (Δpep1Δtsp1Δslp1Δgap1Δgap2) was grown along with single components or with combinations of the following: trypsin and subtilisin inhibitor SBTI, the acidic protease inhibitor peptide SIP, the acidic protease inhibitor peptide LIP, the aspartic protease inhibitor pepstatin A free peptide, pepstatin A immobilized to agarose beads, the trypsin and subtilisin inhibitor BBI from lima bean, the […] chymostatin, and BSA. Three independent wells were chosen for control wells where no inhibitors or supplements were added. These two strains were grown in 3 ml of TrMM with diammonium citrate without ammonium sulfate, 100 mM PIPPS, 20 g/L spent grain extract, 40 g/L lactose adjusted to pH 4.5. The 24 well plates were shaken at 800 rpm, 85% humidity, and 28° C. The cultures were grown for 6 days and covered with an air permeable membrane.
Inhibitors were added first on day 1 and then daily beginning on day 3. 100 μl samples were taken from the culture wells beginning on day 3. The mycelium was spun down for 5 minutes at 13 k and the supernatant collected. […]
On the technique in general: In western blotting, separated proteins are transferred to a membrane and probed.

B1: SBTI: soybean trypsin inhibitor, trypsin and subtilisin inhibitor (protein)
chain: DFVLDNEGNPLENGGTYYILSDITAFGGIRAAPTGNERCPLTVVQSRNELDKGIGTIISSPYRIRFIAEGHPLSLKFDSFAVIMLCVGIPTEWSVVEDLPEGPAVKIGENKDAMDGWFRLERVSDDEFNNYKLVFCPQQAEDDKCGDIGISIDHDDGTRRLVVSKNKPLVVQFQKLDKESL
In the case of B1, the “rituximab heavy chain fragment formation” value in data set [1] was “inhibited the 38 kD fragment from forming”. Besides, the “effect on culture growth (followed by pH)” value in data set [2] is on record as “no significant differences in the pH”. Moreover, the “rituximab light chain production vs untreated cultures” value in data set [2] (SBTI 100 or 500 μg/ml) is listed as “minor improvement”. For the same molecule, in data set [2] (day 5, SBTI 100 or 500 μg/ml, chymostatin 100 μM), the “rituximab heavy chain production vs untreated cultures” value is “several fold higher”. Moreover, in data set [3] (SIP, LIP, pepstatin A 60 μM, SBTI 200 μg/ml), the proteases inhibited result is “able to inhibit SLP2 and PEP4”. Also, the “inhibition of SIP purified protease activity against casein” value in data set [3] (FIG. 11) is given as “able to inhibit the SLP2 protease”. Besides, in data set [4], the “effect on hGH production” value is “improved production”.

Source of the values: patent US11180767B2, “Protease deficient filamentous fungal cells and methods of use thereof” (GLYKOS FINLAND OY, priority 2012, dated 2021).
